Experimental data as given in patent US20160340743.

Target: GSK-3 fusion protein (kinase substrate, Nonradioactive AKT Kinase Assay Kit, Cell signaling 9840)

B1: BCAM-AKT2-FLAG (cloned from patient S4, expressed in OVCAR8 cells) (protein)
chain: EVRLSVPPLVEVMRGKSVILDYTPTGTHDHYMLEWFLTDRSGARPRLASAEMQGSELQVTMHDTRGRSPPYQLDSQGRLVLAEAQVGDERDYVCVVRAGAAGTAEATARLNVFAKPEATEVSPNKGTLSVMEDSAQEIATCNSRNGNPAPKITWYRNGQRLEVPVEMNPEGYMTSRTVREASGLLSLTSTLYLRLRKDDRDASFHCAAHYSLPEGRHGRLDSPTFHLTLHYPTEHVQFWVGSPSTPAGWVREGDTVQLLCRGDGSPSPEYTLFRLQDEQEEVLNVNLEGYLTLEGVTRGQSGTYGCRVEDYDAADDVQLSKTLELRVAYLDPLELNEGKVLSLPLNSSAVVNCSVHGLPTPALRWTKDSTPLGDGPMLSLSSITFDSNGTYVCEASLPTVPVLSRTQNFTLLVQGSPGLKTAEIEPKADGSWREGDEVTLICSARGHPDPKLSWSQLGGSPAEPIPGRQGWVSSSLTLKVTSALSRDGISCEASNPHGNKRHVFHFGTVSPQTSQAGVAVMAVAVSVGLLLLVVAVFYCVRRKGGPCCRQRREKGAPEEWMRAIQMVANSLKQRAPGEDPMDYKCGSPSDSSTTEEMEVAVSKARAKVTMNDFDYLKLLGKGTFGKVILVREKATGRYYAMKILRKEVIIAKDEVAHTVTESRVLQNTRHPFLTALKYAFQTHDRLCFVMEYANGGELFFHLSRERVFTEERARFYGAEIVSALEYLHSRDVVYRDIKLENLMLDKDGHIKITDFGLCKEGISDGATMKTFCGTPEYLAPEVLEDNDYGRAVDWWGLGVVMYEMMCGRLPFYNQDHERLFELILMEEIRFPRTLSPEAKSLLAGLLKKDPKQRLGGGPSDAKEVMEHRFFLSINWQDVVQKKLLPPFKPQVTSEVDTRYFDDEFTAQSITITPPDRYDSLGLLELDQRTHFPQFSYSASIRE
phosphorylation of GSK-3 (in vitro kinase assay, western blot with anti-phospho-GSK-3): incubation with immunoprecipitated BCAM-AKT2 led to efficient phosphorylation of GSK-3
